The results in this text go back to paper PMC12647621, “A de novo missense variant in MIDEAS results in increased deacetylase activity of the MiDAC HDAC complex causing a neurodevelopmental syndrome” (Nature Communications, 2025).

Residue numbers refer to the chain shown, from its start. Names may count otherwise.

First the molecules themselves.
B1: MIDEAS 717-887 (WT) (domain or fragment, human, UniProt Q6PJG2 717-887, looked up)
chain: VSIEPRINVGSRFQAEIPLMRDRALAAADPHKADLVWQPWEDLESSREKQRQVEDLLTAACSSIFPGAGTNQELALHCLHESRGDILETLNKLLLKKPLRPHNHPLATYHYTGSDQWKMAERKLFNKGIAIYKKDFFLVQKLIQTKTVAQCVEFYYTYKKQVKIGRNGTLT
B2: MIDEAS (628-887) (domain or fragment, human, UniProt Q6PJG2 628-887, looked up)
chain: TPYQSHLRSPVRLADHPSERSFELPPYTPPPILSPVREGSGLYFNAIISTSTIPAPPPITPKSAHRTLLRTNSAEVTPPVLSVMGEATPVSIEPRINVGSRFQAEIPLMRDRALAAADPHKADLVWQPWEDLESSREKQRQVEDLLTAACSSIFPGAGTNQELALHCLHESRGDILETLNKLLLKKPLRPHNHPLATYHYTGSDQWKMAERKLFNKGIAIYKKDFFLVQKLIQTKTVAQCVEFYYTYKKQVKIGRNGTLT
B3: MIDEAS 628-887 Y654S T655A (SAP) (domain or fragment, human, UniProt Q6PJG2 628-887, looked up)
chain: B2 chain with Y27S, T28A
B4: MIDEAS 628-887 Y654S (STP) (domain or fragment, human, UniProt Q6PJG2 628-887, looked up)
chain: B2 chain with Y27S
modifications: phosphorylation either on S654 or T655 detected on more than 41% of the peptides containing STP
B5: MIDEAS 628-887 Y654S T655D (SDP) (domain or fragment, human, UniProt Q6PJG2 628-887, looked up)
chain: B2 chain with Y27S, T28D

The target of the assay is HDAC1 (full-length) (UniProt Q13547 1-482). Kind of assay: cell-based or functional assay.
Chain of HDAC1 (full-length) (Q13547 whole entry): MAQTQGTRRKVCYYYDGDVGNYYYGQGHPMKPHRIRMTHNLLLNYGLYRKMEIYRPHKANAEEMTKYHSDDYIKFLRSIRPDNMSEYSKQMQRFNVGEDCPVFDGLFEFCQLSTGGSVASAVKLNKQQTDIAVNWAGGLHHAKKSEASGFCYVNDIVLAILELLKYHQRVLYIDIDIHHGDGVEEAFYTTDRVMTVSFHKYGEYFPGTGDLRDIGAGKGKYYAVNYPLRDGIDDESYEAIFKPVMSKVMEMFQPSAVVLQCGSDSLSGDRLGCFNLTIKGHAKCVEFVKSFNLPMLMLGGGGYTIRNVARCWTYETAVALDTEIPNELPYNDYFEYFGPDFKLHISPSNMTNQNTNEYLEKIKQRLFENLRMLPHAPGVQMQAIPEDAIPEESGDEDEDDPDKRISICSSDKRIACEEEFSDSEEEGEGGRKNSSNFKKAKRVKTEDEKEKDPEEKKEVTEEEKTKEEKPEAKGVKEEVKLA
Turning to B1, the “initial rate of deacetylation of H3K9ac peptide (100 µM) by the MiDAC complex (50 nM HDAC1), NMR assay” value (from here on “initial rate”) turned out to be 29.7 nM/s.
In the case of B2, the “initial rate” value is 6.3 nM/s.
Consider B3, for which the “initial rate” value stood at 16.6 nM/s.
Take B4: the “initial rate” value was found to be 20.4 nM/s.
As for B5, the figure is 27.3 nM/s.
